Experimental data taken from patent US20220291215A1.

Tests used:
[1] = biological target: DP4/MAGE-A3243-258 TCR, clone R12C9
[2] = biological target: DP4/MAGE-A3243-258 TCR, clone R12C9; remark: listed apart in the source

With Control (peptide-MHC) the % dimer+ CD4+ cells [1] was 0.4% and the % dimer+ Vβ22+ cells [2] was 0.1%.
